We go through one molecule from publication PMC4215226, “The Chlamydia Effector TarP Mimics the Mammalian Leucine-Aspartic Acid Motif of Paxillin to Subvert the Focal Adhesion Kinase during Invasion*” (The Journal of Biological Chemistry, 2014).

The target of the assay is focal adhesion kinase (FAK) (human (endogenous in HeLa), UniProt Q05397 1-1052). Kind of assay: cell-based or functional assay.
Chain of focal adhesion kinase (FAK) (Q05397 whole entry): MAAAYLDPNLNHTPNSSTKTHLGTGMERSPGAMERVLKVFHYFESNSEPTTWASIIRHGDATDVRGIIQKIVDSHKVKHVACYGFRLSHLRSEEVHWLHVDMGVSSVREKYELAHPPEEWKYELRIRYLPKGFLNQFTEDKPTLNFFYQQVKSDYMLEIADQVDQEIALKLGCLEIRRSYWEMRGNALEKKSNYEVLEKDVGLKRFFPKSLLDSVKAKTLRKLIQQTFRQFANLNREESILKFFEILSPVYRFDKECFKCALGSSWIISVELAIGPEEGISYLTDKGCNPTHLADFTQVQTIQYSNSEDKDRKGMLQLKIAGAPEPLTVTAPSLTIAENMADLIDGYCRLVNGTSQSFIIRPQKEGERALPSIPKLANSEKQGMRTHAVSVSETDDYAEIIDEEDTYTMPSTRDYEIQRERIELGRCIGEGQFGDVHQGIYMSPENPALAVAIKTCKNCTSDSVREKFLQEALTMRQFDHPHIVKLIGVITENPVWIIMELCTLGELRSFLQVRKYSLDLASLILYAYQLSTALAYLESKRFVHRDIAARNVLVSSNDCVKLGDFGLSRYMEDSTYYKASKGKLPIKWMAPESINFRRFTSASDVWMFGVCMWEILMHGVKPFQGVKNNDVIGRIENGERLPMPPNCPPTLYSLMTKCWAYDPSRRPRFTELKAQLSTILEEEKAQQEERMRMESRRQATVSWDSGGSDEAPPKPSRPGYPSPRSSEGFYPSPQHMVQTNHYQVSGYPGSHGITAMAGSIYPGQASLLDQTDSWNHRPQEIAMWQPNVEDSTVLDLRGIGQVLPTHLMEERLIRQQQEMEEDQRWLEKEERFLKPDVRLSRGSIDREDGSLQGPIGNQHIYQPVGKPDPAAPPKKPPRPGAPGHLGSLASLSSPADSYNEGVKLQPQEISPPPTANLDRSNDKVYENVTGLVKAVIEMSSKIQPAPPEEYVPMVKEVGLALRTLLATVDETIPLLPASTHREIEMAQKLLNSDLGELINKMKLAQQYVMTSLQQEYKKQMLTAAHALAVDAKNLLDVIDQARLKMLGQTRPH

B1: Cya18-Pax-LD2 (domain or fragment, UniProt P49024 125-186, looked up)
chain: KSAEPSPTMTSTSLGSNLSELDRLLLELNAVQHNPPSGFSADEVSRSPSLPNVTGPHYVIPE
As to B1, the “colocalisation of endogenous pY397-FAK with adhered Δtir EPEC in Cos7 cells expressing TirM-Pax-LD2, increase relative to the TirM-only negative control” value was found to be 2.4 fold.
